For three substances, percent of injection sites with correct anterior turns of post-crossing commissural axons (open-book explant, collagen gel) results are on record in patent US20050049195A1.

This assay concerns the target Wnt proteins. In words: cell-based or functional assay.
For “Mouse sFRP1 (secreted Frizzled-related protein 1) (from UniProt Q8C4U3 32-314)”, the percent of injection sites with correct anterior turns of post-crossing commissural axons (open-book explant, collagen gel) came to 11%. Turning to “Mouse sFRP2 (secreted Frizzled-related protein 2), Myc epitope tagged (from UniProt P97299 25-295)”, the percent of injection sites with correct anterior turns of post-crossing commissural axons (open-book explant, collagen gel) was determined as 25%.

Consider “Mouse sFRP3 (secreted Frizzled-related protein 3), Myc epitope tagged (from UniProt P97401 33-323)”, for which the percent of injection sites with correct anterior turns of post-crossing commissural axons (open-book explant, collagen gel) came to 25%.
